Patent publication US20170362301A1 (Janssen / Centocor, published 2017)
Where a chain is given by its changes, count along the chain named. Names may count otherwise.

B1: P54AR4-83v2 L32C, NEM conjugate (designed binder)
chain: LPAPKNLVVSEVTEDSARLSWDDPWAFYESFCIQYQESEKVGEAIVLTVPGSERSYDLTGLKPGTEYTVSIYGVHNVYKDTNMRGLPLSAIFTT
modifications: NEM on Cys 32
notes: His-tagged
B2: P54AR4-83v2 V41C, NEM conjugate (designed binder)
chain: B1 chain with C32L, V41C
modifications: NEM on Cys 41
notes: His-tagged
B3: P54AR4-83v2 T68C, NEM conjugate (designed binder)
chain: B1 chain with C32L, T68C
modifications: NEM on Cys 68
notes: His-tagged
B4: P54AR4-83v2 P4C, NEM conjugate (designed binder)
chain: B1 chain with P4C, C32L
modifications: NEM on Cys 4
notes: His-tagged
B5: P54AR4-83v2 T81C, NEM conjugate (designed binder)
chain: B1 chain with C32L, T81C
modifications: NEM on Cys 81
notes: His-tagged
B6: P54AR4-83v2 R18C, NEM conjugate (designed binder)
chain: B1 chain with R18C, C32L
modifications: NEM on Cys 18
notes: His-tagged
B7: P54AR4-83v2 P63C, NEM conjugate (designed binder)
chain: B1 chain with C32L, P63C
modifications: NEM on Cys 63
notes: His-tagged
B8: P54AR4-83v2 T59C, NEM conjugate (designed binder)
chain: B1 chain with C32L, T59C
modifications: NEM on Cys 59
notes: His-tagged
B9: P54AR4-83v2 L86C, NEM conjugate (designed binder)
chain: B1 chain with C32L, L86C
modifications: NEM on Cys 86
notes: His-tagged
B10: P54AR4-83v2 S10C, NEM conjugate (designed binder)
chain: B1 chain with S10C, C32L
modifications: NEM on Cys 10
notes: His-tagged
B11: P54AR4-83v2 S55C, NEM conjugate (designed binder)
chain: B1 chain with C32L, S55C
modifications: NEM on Cys 55
notes: His-tagged
B12: P54AR4-83v2 S52C, NEM conjugate (designed binder)
chain: B1 chain with C32L, S52C
modifications: NEM on Cys 52
notes: His-tagged
B13: P54AR4-83v2 T13C, NEM conjugate (designed binder)
chain: B1 chain with T13C, C32L
modifications: NEM on Cys 13
notes: His-tagged
B14: P54AR4-83v2 Q34C, NEM conjugate (designed binder)
chain: B1 chain with C32L, Q34C
modifications: NEM on Cys 34
notes: His-tagged
B15: P54AR4-83v2 S70C, NEM conjugate (designed binder)
chain: B1 chain with C32L, S70C
modifications: NEM on Cys 70
notes: His-tagged
B16: P54AR4-83v2 R54C, NEM conjugate (designed binder)
chain: B1 chain with C32L, R54C
modifications: NEM on Cys 54
notes: His-tagged
B17: P54AR4-83v2 N6C, NEM conjugate (designed binder)
chain: B1 chain with N6C, C32L
modifications: NEM on Cys 6
notes: His-tagged
B18: P54AR4-83v2 M83C, NEM conjugate (designed binder)
chain: B1 chain with C32L, M83C
modifications: NEM on Cys 83
notes: His-tagged
B19: P54AR4-83v2 P2C, NEM conjugate (designed binder)
chain: B1 chain with P2C, C32L
modifications: NEM on Cys 2
notes: His-tagged
B20: P54AR4-83v2 V9C, NEM conjugate (designed binder)
chain: B1 chain with V9C, C32L
modifications: NEM on Cys 9
notes: His-tagged
B21: P54AR4-83v2 L47C, NEM conjugate (designed binder)
chain: B1 chain with C32L, L47C
modifications: NEM on Cys 47
notes: His-tagged
B22: P54AR4-83v2 S16C, NEM conjugate (designed binder)
chain: B1 chain with S16C, C32L
modifications: NEM on Cys 16
notes: His-tagged
B23: P54AR4-83v2 T93C, NEM conjugate (designed binder)
chain: B1 chain with C32L, T93C
modifications: NEM on Cys 93
notes: His-tagged
B24: P54AR4-83v2 V49C, NEM conjugate (designed binder)
chain: B1 chain with C32L, V49C
modifications: NEM on Cys 49
notes: His-tagged
B25: P54AR4-83v2 S30C, NEM conjugate (designed binder)
chain: B1 chain with S30C, C32L
modifications: NEM on Cys 30
notes: His-tagged
B26: P54AR4-83v2 V12C, NEM conjugate (designed binder)
chain: B1 chain with V12C, C32L
modifications: NEM on Cys 12
notes: His-tagged
B27: P54AR4-83v2 V8C, NEM conjugate (designed binder)
chain: B1 chain with V8C, C32L
modifications: NEM on Cys 8
notes: His-tagged
B28: P54AR4-83v2 S20C, NEM conjugate (designed binder)
chain: B1 chain with S20C, C32L
modifications: NEM on Cys 20
notes: His-tagged
B29: P54AR4-83v2 P24C, NEM conjugate (designed binder)
chain: B1 chain with P24C, C32L
modifications: NEM on Cys 24
notes: His-tagged
B30: P54AR4-83v2 S38C, NEM conjugate (designed binder)
chain: B1 chain with C32L, S38C
modifications: NEM on Cys 38
notes: His-tagged
B31: P54AR4-83v2 V74C, NEM conjugate (designed binder)
chain: B1 chain with C32L, V74C
modifications: NEM on Cys 74
notes: His-tagged
B32: P54AR4-83v2 P50C, NEM conjugate (designed binder)
chain: B1 chain with C32L, P50C
modifications: NEM on Cys 50
notes: His-tagged
B33: P54AR4-83v2 L88C, NEM conjugate (designed binder)
chain: B1 chain with C32L, L88C
modifications: NEM on Cys 88
notes: His-tagged
B34: P54AR4-83v2 S89C, NEM conjugate (designed binder)
chain: B1 chain with C32L, S89C
modifications: NEM on Cys 89
notes: His-tagged
B35: P54AR4-83v2 N76C, NEM conjugate (designed binder)
chain: B1 chain with C32L, N76C
modifications: NEM on Cys 76
notes: His-tagged
B36: P54AR4-83v2 P87C, NEM conjugate (designed binder)
chain: B1 chain with C32L, P87C
modifications: NEM on Cys 87
notes: His-tagged
B37: P54AR4-83v2 N82C, NEM conjugate (designed binder)
chain: B1 chain with C32L, N82C
modifications: NEM on Cys 82
notes: His-tagged
B38: P54AR4-83v2 R84C, NEM conjugate (designed binder)
chain: B1 chain with C32L, R84C
modifications: NEM on Cys 84
notes: His-tagged
B39: P54AR4-83v2 T48C, NEM conjugate (designed binder)
chain: B1 chain with C32L, T48C
modifications: NEM on Cys 48
notes: His-tagged
B40: P54AR4-83v2 V46C, NEM conjugate (designed binder)
chain: B1 chain with C32L, V46C
modifications: NEM on Cys 46
notes: His-tagged

Tests used:
[1] = molecular target: T1, EGFR (form in the assay not stated) (human, UniProt P00533 25-645, limits assumed); assay: ELISA, NEM conjugate 500 nM
[2] = molecular target: T1, EGFR (form in the assay not stated); assay: ELISA, NEM conjugate 10 nM
[3] = molecular target: T1, EGFR (form in the assay not stated); assay: ELISA, NEM conjugate 100 nM

Binder	binding ratio vs parent P54AR4-83v2 [1] [ratio]	binding ratio vs parent P54AR4-83v2 [2] [ratio]	binding ratio vs parent P54AR4-83v2 [3] [ratio]
B1	0.91	0.87	1.01
B2	0.95	0.92	0.99
B3	0.95	0.83	1.04
B4	0.12	0.02	0.02
B5	1.02	0.5	0.9
B6	0.94	0.86	1.05
B7	0.92	0.95	1.02
B8	0.93	0.83	1.04
B9	0.92	0.77	0.96
B10	0.96	0.83	1.07
B11	0.11	0	0
B12	0.93	0.78	1.03
B13	0.9	0.87	1.04
B14	0.94	0.89	1.03
B15	0.93	0.86	1.01
B16	0.93	0.89	1.01
B17	0.89	0.76	1.01
B18	0.24	0.07	0.04
B19	0.01	0	0
B20	0.93	0.94	1.03

Binder	binding ratio vs parent P54AR4-83v2 [1] [ratio]	binding ratio vs parent P54AR4-83v2 [2] [ratio]	binding ratio vs parent P54AR4-83v2 [3] [ratio]
B21	0.91	0.92	1.02
B22	0.63	0.88	1.05
B23	1.04	0.96	1.05
B24	0.98	0.96	1.01
B25	0.9	0.9	1.02
B26	0.93	0.87	1.06
B27	0.9	0.96	1.03
B28	0.91	0.81	1.05
B29	0.83	0.45	0.85
B30	0.82	0.8	0.93
B31	0.95	0.76	1.01
B32	0.97	0.91	1.05
B33	0.97	0.95	1.03
B34	1.04	0.97	1.02
B35	0.91	0.75	0.97
B36	0.91	0.73	0.93
B37	0.96	0.56	0.97
B38	0.98	0.91	1.04
B39	0.93	0.88	1
B40	0.9	0.61	1.01
